Biological target: T1, Thr221-phosphorylated S6K11-364 (Rattus norvegicus, UniProt P67999)
T1 construct: Purified HA-S6K1-364 was incubated with synthetic S6K1 (rat) tail peptides; made in house; host or cells: COS7, co-transfected with myc-PDK1; anti-HA immunoprecipitate
Test: S6K1 in vitro reconstitution kinase assay with tail peptides
Format: biochemical
From the text: We established an in vitro reconstitution assay that could test a direct activation of the AGC kinase domain by the tail phosphate and characterize its cooperation with the HM and activation loop phosphates. The deletion mutant S6K11-364, which contains the kinase domain, but lacks the region of the tail containing the tail site and the HM as well as the C-terminal autoinhibitory domain, was expressed and purified from COS7 cells, either non-phosphorylated or phosphorylated at T221 in the activation loop, achieved by co-expression with PDK1. Purified S6K11-364 was then incubated with synthetic peptides of the S6K1 tail (residues 366-395: QTPVDS^371PDDSTLSESANQVFLGFT^389YVAPSV), which were either non-phosphorylated (S371/T389), phosphorylated at the tail site (pS371/T389), phosphorylated in the HM (S371/pT389) or phosphorylated at both sites (pS371/pT389). Subsequently, the kinase activity of S6K11-364 was determined.
Kinase assays for PKB, RSK, S6K, MSK were done as described previously (Frodin et al., 2002). […] After washing with 150 mM orthophosphoric acid, [^32P]phosphate incorporated into peptide substrate was quantified in an FLA-3000 apparatus (Fujifilm). […]

T1 sequence (P67999 24-387): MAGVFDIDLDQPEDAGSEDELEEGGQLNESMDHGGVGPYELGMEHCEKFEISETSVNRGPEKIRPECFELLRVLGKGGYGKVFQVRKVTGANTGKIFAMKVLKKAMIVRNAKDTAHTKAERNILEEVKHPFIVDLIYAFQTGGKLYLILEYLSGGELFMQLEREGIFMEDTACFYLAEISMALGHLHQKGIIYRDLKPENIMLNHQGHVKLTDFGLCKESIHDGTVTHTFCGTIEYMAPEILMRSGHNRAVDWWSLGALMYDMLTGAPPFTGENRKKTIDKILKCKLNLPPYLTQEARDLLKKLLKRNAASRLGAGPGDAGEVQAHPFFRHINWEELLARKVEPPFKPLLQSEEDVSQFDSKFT

stimulation of kinase activity (in words): did not stimulate
Substance: S371/T389: synthetic S6K1 tail peptide (residues 366-395), non-phosphorylated

From patent US20110152166A1, “METHOD OF MODULATION OF PROTEIN PHOSPHORYLATION-DEPENDENT CONFORMATIONAL TRANSITIONS WITH LOW MOLECULAR WEIGHT COMPOUNDS” (priority 2006, published 2011)
